From PMC6944315 come the findings set out here.

Assay [1] addresses Caldivirga maquilingensis type III sulfide:quinone oxidoreductase, wild type, His-tagged (Caldivirga maquilingensis IC-167). The assay can be described thus: SEC. (SEC sorts molecules by how far they enter the pores of the column.)
The target of assay [2] is CmSQR truncated 1 (T1), lacking the complete last C-terminal helix (Caldivirga maquilingensis IC-167). The assay can be described thus: native gel or EMSA.
For assay [3] the target is unchanged. Kind of assay: SEC.
Assay [4] addresses CmSQR truncated 2 (T2), lacking the last two C-terminal helices, His-tagged (Caldivirga maquilingensis IC-167). The assay can be described thus: native gel or EMSA. In general terms: Mobility shift assays separate free from complexed probe on a gel.
For assay [5] the target is unchanged. Kind of assay: SEC.
Assay [6] shares this target. The assay can be described thus: cross-linking.

Several values for one entry are separate records, joined by “and”; a condition that tells them apart may be missing. Identical values can stand only once.

For orientation: stoichiometry N means the number of molecules, sites or subunits per partner or assembly.

“Caldivirga maquilingensis type III sulfide:quinone oxidoreductase, wild type, His-tagged (enzyme)” displayed a stoichiometry N in assay [1] of 2.
In the case of “CmSQR truncated 1 (T1), lacking the complete last C-terminal helix (domain or fragment)”, the stoichiometry N in assay [2] and in assay [3] was 2 each time.
For “CmSQR truncated 2 (T2), lacking the last two C-terminal helices, His-tagged (domain or fragment)”, the stoichiometry N in assay [4] is 2 and 3; in assay [5] it was 2; in assay [6], 2 and 3.
